Reference: the supplement of paper PMC10724198
± gives the standard deviation of the averaged measurements.

How the values were obtained:
[1] = test system: Saccharomyces cerevisiae; experiment: protein stability index of tFT-peptide fusion in wild type (PSI (0-1 scale)); higher = more stable (slower turnover); details: genetic background: wild type
[2] = test system: Saccharomyces cerevisiae; experiment: protein stability index of tFT-peptide fusion in deletion strain of DOA10 (PSI (0-1 scale)); higher = more stable (slower turnover)
Description: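 MPS profiling in S. cerevisiae of two library types built from selected 12-aa C-degron peptides (IN1, IN2, LN1, LN3, VN2, R1-R5, W1-W3, Atg1 and Rpa12 C-termini): saturation mutagenesis libraries and C-terminal +1 capping libraries (13 aa). Each peptide is fused to the C-terminus of a sfGFP-mCherry timer, after a GGGS linker. Cells are FACS-sorted into 8 mCherry/sfGFP bins and sequenced. PSI runs from 0 (unstable) to 1 (stable), measured once in wild type and in the das1Δ or doa10Δ background.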

[3] = test system: Saccharomyces cerevisiae; experiment: protein stability index of tFT-peptide fusion (C-terminal peptide) (PSI (0-1 scale)); higher = more stable (slower turnover)
Description: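 MPS profiling in S. cerevisiae of the tFT-X12 degron library: putative degron peptides plus stable controls, 12 aa, fused to the C-terminus of a sfGFP-mCherry timer. Cells are FACS-sorted into 8 mCherry/sfGFP bins and deep-sequenced. PSI runs from 0 (unstable) to 1 (stable). Backgrounds are wild type, das1Δ and doa10Δ at 30 °C, and wild type, das1Δ, cdc34-1 and cdc53-1 at 37 °C; 2-3 technical replicates each.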

[4] = test system: Saccharomyces cerevisiae; experiment: protein stability index of tFT-peptide fusion in deletion strain of DAS1 (PSI (0-1 scale)); higher = more stable (slower turnover)
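Wherever protein stability index of tFT-peptide fusion (C-terminal peptide) is given: PSI is a weighted mean of sequencing reads over stability bins, variants kept only with over 10 reads, mCherry proximal and sfGFP distal, peptide attached via GGGS linker.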
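Wherever protein stability index of tFT-peptide fusion in deletion strain of DAS1 is given: PSI is a weighted mean of each variant's read distribution over the sorted stability bins, computed only for variants having over 10 reads in total.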
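Wherever protein stability index of tFT-peptide fusion in deletion strain of DOA10 is given: PSI per variant is the weighted mean of its sequencing read distribution over the sorted stability bins, counting only variants with over 10 reads summed across bins.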
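Wherever protein stability index of tFT-peptide fusion in wild type is given: PSI derived as read-weighted mean over the 8 sorting bins, only variants exceeding 10 total reads kept, mCherry placed adjacent to the peptide and sfGFP distal.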

Row | Sequence | protein stability index [1] | protein stability index [2] | further results
1 | GLYICSVGCWFR | 0.181 | 0.539 | 
2 | RSLRVLLPLRFR | 0.41 | 0.661 | 
3 | PLVSLPILLFFR | 0.138 | 0.661 | 
4 | AILLPMCPLLLR | 0.281 | 0.612 | 
5 | RVTRLDAIYFRL | 0.395 | 0.7 | 
6 | CLVSIPILLFFR | 0.057 | 0.556 | 
7 | GLYMCSVGHWFR | 0.656 | 0.679 | 
8 | LLVSLPILLFFR | 0.0951 | 0.561 | 
9 | CLVSLPILLMFR | 0.0704 | 0.581 | 
10 | RMLRVLLPLYFR | 0.359 | 0.656 | 
11 | AFTLPMCPLLLR | 0.171 | 0.653 | 
12 | RVTRLDKIYFRI | 0.283 | 0.51 | 
13 | QLYMCSVGCWFR | 0.368 | 0.625 | 
14 | CLASLPILLFFR | 0.0826 | 0.626 | 
15 | CLVSLPILLPFR | 0.642 | 0.67 | 
16 | RSLRMLLPLYFR | 0.376 | 0.615 | 
17 | RSLRVLLPSYFR | 0.65 | 0.668 | 
18 | GLYMCSVGCWFF | 0.473 | 0.532 | 
19 | CLVSLPILLRFR | 0.153 | 0.647 | 
20 | GLYMCSVGCWFS | 0.381 | 0.445 | 
21 | GLYLCSVGCWFR | 0.21 | 0.575 | 
22 | RSLRVLRPLYFR | 0.257 | 0.684 | 

Row | Sequence | protein stability index [1] | protein stability index [2] | further results
23 | RVTLLDAIYFRI | 0.455 | 0.662 | 
24 | GLYMCSVCCWFR | 0.47 | 0.548 | 
25 | RVTRLDAIKFRI | 0.66 | 0.685 | 
26 | RVTRLDAVYFRI | 0.442 | 0.68 | 
27 | GLYMCNVGCWFR | 0.385 | 0.676 | 
28 | CLVSLPNLLFFR | 0.11 | 0.685 | 
29 | GLYMCSVGCWFRN | 0.286 | 0.584 | 
30 | AITLPMEPLLLR | 0.441 | 0.67 | 
31 | GLYMCPVGCWFR | 0.26 | 0.664 | 
32 | AITLPSCPLLLR | 0.304 | 0.669 | 
33 | RVTRLDAIYFRIW | 0.234 | 0.577 | 
34 | RSLRVLLPLYFQ | 0.431 | 0.615 | 
35 | HLYMCSVGCWFR | 0.401 | 0.63 | 
36 | AITLPMCPLLKR | 0.645 | 0.676 | 
37 | RSLRVYLPLYFR | 0.268 | 0.678 | 
38 | CLVSLPILTFFR | 0.523 | 0.643 | 
39 | CLVRLPILLFFR | 0.0563 | 0.595 | 
40 | GLYMCSHGCWFR | 0.435 | 0.695 | 
41 | CLVSGPILLFFR | 0.217 | 0.631 | 
42 | RSLRYLLPLYFR | 0.378 | 0.671 | 
43 | RSLRVLLPLYFK | 0.25 | 0.633 | 
44 | RSLRVLLPLYFM | 0.328 | 0.42 | 

Row | Sequence | protein stability index [1] | protein stability index [2] | further results
45 | CKVSLPILLFFR | 0.0542 | 0.621 | 
46 | WLYMCSVGCWFR | 0.302 | 0.633 | 
47 | CLVSLPILLFFRE | 0.148 | 0.582 | 
48 | RSLRVLLRLYFR | 0.391 | 0.625 | 
49 | CQVSLPILLFFR | 0.0497 | 0.631 | 
50 | RSLRVLLVLYFR | 0.269 | 0.389 | 
51 | GLYMCSVYCWFR | 0.255 | 0.374 | 
52 | RSLRVLLSLYFR | 0.452 | 0.643 | 
53 | RITRLDAIYFRI | 0.397 | 0.673 | 
54 | RSLRVLLPLYFD | 0.491 | 0.63 | 
55 | GSLRVLLPLYFR | 0.242 | 0.685 | 
56 | RNLRVLLPLYFR | 0.302 | 0.682 | 
57 | AITLPMCQLLLR | 0.174 | 0.663 | 
58 | CLVSLPILMFFR | 0.0684 | 0.591 | 
59 | RVTRLDAIYFRQ | 0.533 | 0.589 | 
60 | GLYMCSVGCWVR | 0.215 | 0.341 | 
61 | RSLRVLYPLYFR | 0.279 | 0.67 | 
62 | CLVSLPILLFMR | 0.0691 | 0.56 | 
63 | RSLRVLLPLYFRA | 0.244 | 0.593 | 
64 | RVTRLDAIYPRI | 0.693 | 0.731 | 
65 | AITLPMCPLLLRD | 0.422 | 0.65 | 
66 | RVTRLDAISFRI | 0.691 | 0.727 | 

Row | Sequence | protein stability index [1] | protein stability index [2] | further results
67 | GLYMCSVGSWFR | 0.634 | 0.69 | 
68 | RSLRVLLPLYKR | 0.602 | 0.662 | 
69 | AITLPMVPLLLR | 0.153 | 0.622 | 
70 | RVTRLDAIYFQI | 0.292 | 0.305 | 
71 | AITLPMCPLTLR | 0.363 | 0.672 | 
72 | RVPRLDAIYFRI | 0.389 | 0.669 | 
73 | GLYMLSVGCWFR | 0.246 | 0.464 | 
74 | RSLRVLLPLYFI | 0.255 | 0.528 | 
75 | RVTRSDAIYFRI | 0.525 | 0.695 | 
76 | RSLRWLLPLYFR | 0.427 | 0.642 | 
77 | RVTRLDAWYFRI | 0.678 | 0.717 | 
78 | RVTRLMAIYFRI | 0.155 | 0.295 | 
79 | RVTRGDAIYFRI | 0.553 | 0.693 | 
80 | GLYMCSFGCWFR | 0.239 | 0.665 | 
81 | AITLPMCPLLLI | 0.493 | 0.596 | 
82 | RVTDLDAIYFRI | 0.636 | 0.678 | 
83 | AICLPMCPLLLR | 0.224 | 0.632 | 
84 | RVTRLDAIWFRI | 0.22 | 0.676 | 
85 | GLYMCSVDCWFR | 0.574 | 0.615 | 
86 | RSLRVLLPLKFR | 0.431 | 0.67 | 
87 | RSLRVILPLYFR | 0.197 | 0.675 | 
88 | RSLRVLLPLYFS | 0.246 | 0.352 | 

Row | Sequence | protein stability index [1] | protein stability index [2] | further results
89 | ARWGVGLWRGAS | 0.372 |  | protein stability index ([3]; genetic background: cdc34-1, temperature: 37 C): 0.664 ± 0.02; protein stability index ([3]; genetic background: cdc53-1, temperature: 37 C): 0.756 ± 0.0077; protein stability index ([3]; genetic background: das1 deletion, temperature: 30 C): 0.6508 ± 0.0062; protein stability index ([3]; genetic background: das1 deletion, temperature: 37 C): 0.76494 ± 7.7e-05; protein stability index ([3]; genetic background: doa10 deletion, temperature: 30 C): 0.282 ± 0.018; protein stability index ([3]; genetic background: wild type, temperature: 30 C): 0.299 ± 0.029; protein stability index ([3]; genetic background: wild type, temperature: 37 C): 0.618 ± 0.012; protein stability index [4]: 0.685
90 | CLVSAPILLFFR | 0.11 | 0.639 | 
91 | AITLPMCPLLLV | 0.349 | 0.417 | 
92 | RSLRVLLPLYFRI | 0.184 | 0.484 | 
93 | GLYMHSVGCWFR | 0.255 | 0.706 | 
94 | AITLPMCPLLVR | 0.181 | 0.231 | 
95 | GKYMCSVGCWFR | 0.406 | 0.674 | 
96 | RSLRVLLKLYFR | 0.417 | 0.616 | 
97 | RSLRVHLPLYFR | 0.157 | 0.67 | 
98 | CLVSLPILLFFRN | 0.0659 | 0.531 | 
99 | RVTRKDAIYFRI | 0.564 | 0.664 | 
100 | LVVNLSCVACIN | 0.0111 |  | protein stability index [4]: 0.172
101 | LVVYLGCVACIN | 0.135 |  | protein stability index [4]: 0.192
102 | PDKRNHLIKLDN | 0.602 |  | protein stability index [4]: 0.613
103 | FSMRWTFRYWVK | 0.49 |  | protein stability index [4]: 0.45
104 | RLIQPLSVQFLN | 0.0547 |  | protein stability index [4]: 0.594
105 | RLIQPLPVQFDN | 0.668 |  | protein stability index [4]: 0.624
106 | PDKYNHLIKLLN | 0.0777 |  | protein stability index [4]: 0.59
107 | LKILREKMNHQN | 0.183 |  | protein stability index [4]: 0.678
